Consider three substances from article PMC11142708.

This assay concerns the target microtubule. Briefly: optical trap binding-time assay; kinesin held by its C-terminal His tag on a polystyrene bead (0.56 um, streptavidin with biotinylated penta-His antibody), at most one motor per bead, trapped 0, 20, 40 or 60 nm from a surface-attached microtubule; binding time = time from unbinding to the next detectable bead displacement (>15 nm); room temperature; motility buffer (80 mM Pipes pH 6.9, 50 mM CH3COOK, 4 mM MgSO4, 1 mM DTT, 1 mM EGTA, 10 uM taxol, 1 mg/mL casein) with 2 mM ATP and an oxygen-scavenging system; the rates of Table 1 are fits of Brownian dynamics models to the mean binding times of all three motor lengths together.
On to “DK-560-His (Kinesin-1, aa 1-560; His tag at c-term) (from UniProt P17210 1-560) (domain or fragment)”, for which the binding time (plateau at close distances) worked out at 1 s; the koff^ADP,fast (rate of the weak-to-strong binding transition on the microtubule; diffusion with ADP state model) amounted to 2.12 s⁻¹; the koff^MT (unbinding from the weakly bound state, at zero force; diffusion with ADP state model) is 0.2 s⁻¹; the kon^MT (microscopic first-order binding rate when the head is within 5 nm of the microtubule; diffusion with ADP state model) is 70.7 s⁻¹. The kon^MT (microscopic first-order binding rate; simple diffusion model) is 80.6 s⁻¹.

With “DK-746-His (Drosophila Kinesin aa 1-746; His tag at c-term) (from UniProt P17210 1-746) (domain or fragment)”, the binding time (plateau at close distances) is 1 s; the koff^ADP,fast (rate of the weak-to-strong binding transition on the microtubule; diffusion with ADP state model) is 2.12 s⁻¹; the koff^MT (unbinding from the weakly bound state, at zero force; diffusion with ADP state model) was 0.2 s⁻¹; the kon^MT (microscopic first-order binding rate when the head is within 5 nm of the microtubule; diffusion with ADP state model) is 70.7 s⁻¹. Also, the kon^MT (microscopic first-order binding rate; simple diffusion model) is 80.6 s⁻¹.

On to “DK-406-His (Drosophila Kinesin aa 1-406; His tag at c-term) (from UniProt P17210 1-406) (domain or fragment)”, for which the binding time (plateau at close distances) amounted to 1 s; the koff^ADP,fast (rate of the weak-to-strong binding transition on the microtubule; diffusion with ADP state model) worked out at 2.12 s⁻¹; the koff^MT (unbinding from the weakly bound state, at zero force; diffusion with ADP state model) came to 0.2 s⁻¹; the kon^MT (microscopic first-order binding rate when the head is within 5 nm of the microtubule; diffusion with ADP state model) was found to be 70.7 s⁻¹. For the same substance, the kon^MT (microscopic first-order binding rate; simple diffusion model) was found to be 80.6 s⁻¹.
